Measured values as given in US20220177596A1 (Bristol-Myers Squibb, published 2022).
Residue numbers refer to the chain shown, from its start. In names and notes the source's numbering stands. Read-outs that look alike come from different tables or passages of the source. One block for each binder: values may come before it.

Key:
hCD64-His [1] = molecular target: T1, hCD64-His (human, UniProt P12314 16-288, limits assumed); test: SPR
T1 construct: Generated in house; captured on anti-His Fab; also called hFcgRI; FcgRI
Procedure: (§1) FCGR BINDING SPR: FcgR binding can be measured in vitro using purified FcgRs using methods such as BIAcore™ surface plasmon resonance (SPR). One method tests the binding of purified antibodies to His-tagged FcgR proteins (FcgR-His) which are captured on the immobilized Fab fragment of an anti-His antibody. These experiments are performed on either a BIAcore™ T100 or BIAcore™ T200 instrument (GE Healthcare Life Sciences, Marlborough, Mass.) at 25° C. The Fab fragment from a murine anti-6×His antibody (generated in house) is immobilized on a CMS sensor chip using standard ethyl(dimethylaminopropyl) carbodiimide (EDC)/N-hydroxysuccinimide (NHS) chemistry with ethanolamine blocking, to a density of ˜3000 RU in a running buffer of 10 mM HEPES pH 7.4, 150 mM NaCl, 3 mM EDTA, 0.05% surfactant p20 (HBS-EP+). All remaining studies are performed using a running buffer of 10 mM NaPO4, 130 mM NaCl, 0.05% p20 (PBS-T) pH 7.1. Various FcγR proteins containing a C-terminal 6× poly-histidine tag (generated in house) are captured on this surface (typically using FcgR-his protein concentration of ˜7 μg/ml) using a contact time of 30 sec at 10 μl/min. Various concentrations of purified antibody are tested for binding, for example using an association time of 120 seconds at 30 μl/min, and a dissociation time of 120 seconds at 30 μl/min. FcgR proteins tested in these studies include the “high affinity” FcgR CD64 (hFcgRI), as well as the “low affinity” FcgRs CD32a-H131 (FcgRIIa-H131), CD32a-R131 (FcgRIIa-R131), CD32b (FcgRIIb), CD16a-V158 (FcgRIIIa-V158), and CD16b-NA2 (FcgRIIIb-NA2).

[2] = molecular target: human CD40 on primary human cells (tonsillar B cells, immature dendritic cells) (human, UniProt P25942 21-277); test: cell-based or functional assay
human-CD40 monomer [3] = molecular target: T2, human-CD40 monomer (human, UniProt P25942 21-193, limits assumed); test: SPR, Ab captured on protein A, CD40 monomer analyte
T2 construct: also called hCD40-monomer; human-CD40-monomer protein
Procedure: These chimeric antibodies were tested for CD40 and FcgR binding by SPR, as well as for iDC activation.

hCD32b-His = molecular target: T3, hCD32b-His (human, UniProt P31994 43-217); test: SPR
T3 construct: Generated in house; captured on anti-His Fab; also called FcgRIIb
T3 sequence: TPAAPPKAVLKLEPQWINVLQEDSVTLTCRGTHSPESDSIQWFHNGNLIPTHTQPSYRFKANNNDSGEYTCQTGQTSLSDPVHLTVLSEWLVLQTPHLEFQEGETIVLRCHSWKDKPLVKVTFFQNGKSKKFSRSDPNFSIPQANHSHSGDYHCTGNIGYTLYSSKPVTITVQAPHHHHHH
Procedure: as §1

hCD32a-R131-His = molecular target: T4, hCD32a-R131-His (human, UniProt P12318 34-217); test: SPR
T4 construct: Generated in house; captured on anti-His Fab; Allele R131 as printed; the database entry may carry H at that position; also called FcgRIIa-R131
T4 sequence: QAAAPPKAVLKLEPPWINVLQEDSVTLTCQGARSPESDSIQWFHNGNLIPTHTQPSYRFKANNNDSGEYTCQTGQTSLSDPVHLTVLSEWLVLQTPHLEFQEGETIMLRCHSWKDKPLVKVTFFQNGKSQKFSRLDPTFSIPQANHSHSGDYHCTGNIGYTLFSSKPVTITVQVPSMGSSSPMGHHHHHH
Procedure: as §1

hCD32a-H131-His = molecular target: T5, hCD32a-H131-His (human, UniProt P12318 34-217); test: SPR
T5 construct: Generated in house; captured on anti-His Fab; also called FcgRIIa-H131
T5 sequence: T4 sequence with R134H
Procedure: as §1

hCD16a-V158-His = molecular target: T6, hCD16a-V158-His (human, UniProt P08637 17-208); test: SPR
T6 construct: Generated in house; captured on anti-His Fab; Allele V158 as printed; the database entry may carry F at that position; also called FcgRIIIa-V158
Procedure: as §1

hCD64-His [4] = molecular target: T1, hCD64-His; test: SPR (BIAcore): 7 µg/ml hCD64-His captured on an anti-His Fab surface, 1 µM antibody as analyte
Procedure: as §1

human-CD40 monomer [5] = molecular target: T2, human-CD40 monomer; test: SPR, Ab captured on protein A, CD40 monomer analyte; remark: listed apart in the source

Chain of human CD40 on primary human cells (tonsillar B cells, immature dendritic cells) (P25942 21-277 limits assumed): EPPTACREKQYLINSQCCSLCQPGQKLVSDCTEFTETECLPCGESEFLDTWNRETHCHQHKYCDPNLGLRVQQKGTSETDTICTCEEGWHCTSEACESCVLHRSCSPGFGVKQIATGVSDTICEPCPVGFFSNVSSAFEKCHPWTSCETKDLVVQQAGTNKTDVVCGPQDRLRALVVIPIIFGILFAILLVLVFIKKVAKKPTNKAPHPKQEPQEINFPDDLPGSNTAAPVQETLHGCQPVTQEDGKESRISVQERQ
T1 sequence (P12314 other isoform, or with tags, fused parts or gaps limits assumed): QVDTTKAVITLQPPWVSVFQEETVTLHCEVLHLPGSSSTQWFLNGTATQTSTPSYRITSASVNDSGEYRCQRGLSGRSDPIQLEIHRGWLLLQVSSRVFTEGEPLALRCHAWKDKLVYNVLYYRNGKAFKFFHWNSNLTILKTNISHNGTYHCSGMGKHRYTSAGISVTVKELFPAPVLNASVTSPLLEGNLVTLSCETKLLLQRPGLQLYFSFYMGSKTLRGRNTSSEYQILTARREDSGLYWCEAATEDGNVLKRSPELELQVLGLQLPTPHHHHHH
T2 sequence (P25942 21-193 limits assumed): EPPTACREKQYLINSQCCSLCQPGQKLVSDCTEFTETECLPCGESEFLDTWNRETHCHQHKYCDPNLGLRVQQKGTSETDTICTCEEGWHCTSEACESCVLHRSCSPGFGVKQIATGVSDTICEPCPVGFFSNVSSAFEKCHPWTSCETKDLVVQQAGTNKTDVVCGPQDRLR
T6 sequence (P08637 other isoform, or with tags, fused parts or gaps limits assumed): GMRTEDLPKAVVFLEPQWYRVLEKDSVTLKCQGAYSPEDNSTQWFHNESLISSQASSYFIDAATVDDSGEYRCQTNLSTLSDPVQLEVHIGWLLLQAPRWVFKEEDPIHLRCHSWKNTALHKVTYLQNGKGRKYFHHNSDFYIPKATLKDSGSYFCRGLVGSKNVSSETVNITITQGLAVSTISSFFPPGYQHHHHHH

binding result (hCD64-His [1]): binds
IC50 for inhibition of proliferation of B cells, CD40L Trimer [2]: 0.0034 µg/mL
IC50 for inhibition of proliferation of B cells, CHO CD40L [2]: 0.0184 µg/mL
Kd (human-CD40 monomer [3]): 2.6 nM
koff (human-CD40 monomer [3]): 0.00026 s⁻¹
kon (human-CD40 monomer [3]): 97000 M⁻¹ s⁻¹
B1: Y1238-P238K (antibody, human IgG1, kappa)
heavy: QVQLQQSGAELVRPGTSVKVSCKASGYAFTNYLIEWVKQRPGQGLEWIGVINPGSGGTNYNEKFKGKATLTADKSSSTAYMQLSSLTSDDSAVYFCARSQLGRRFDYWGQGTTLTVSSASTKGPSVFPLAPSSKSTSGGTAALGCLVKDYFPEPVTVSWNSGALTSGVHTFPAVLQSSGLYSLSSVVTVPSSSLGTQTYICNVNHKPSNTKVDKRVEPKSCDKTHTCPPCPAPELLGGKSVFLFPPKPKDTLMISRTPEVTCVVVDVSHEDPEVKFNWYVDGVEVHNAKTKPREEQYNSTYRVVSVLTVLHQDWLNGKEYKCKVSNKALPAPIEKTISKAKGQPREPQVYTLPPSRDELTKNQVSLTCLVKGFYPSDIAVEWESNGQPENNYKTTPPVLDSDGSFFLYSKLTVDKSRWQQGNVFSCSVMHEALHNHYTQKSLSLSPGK
light: DIVMTQSHKFMSTSVGDRVSITCKASQDVRTGVAWYQQKPGQSPKLLIYSASYRNTGVPDRFTGSRSGTDFTFTISSVQAEDLAVYYCQQHYSPPYTFGGGTKLEIKRTVAAPSVFIFPPSDEQLKSGTASVVCLLNNFYPREAKVQWKVDNALQSGNSQESVTEQDSKDSTYSLSSTLTLSKADYEKHKVYACEVTHQGLSSPVTKSFNRGEC
notes: Chimeric; also called chimeric Y1238-P238K

binding result (hCD64-His [1]): binds
IC50 for inhibition of proliferation of B cells, CD40L Trimer [2]: 0.0036 µg/mL
IC50 for inhibition of proliferation of B cells, CHO CD40L [2]: 0.017 µg/mL
Kd (human-CD40 monomer [3]): 2.5 nM
koff (human-CD40 monomer [3]): 0.00024 s⁻¹
kon (human-CD40 monomer [3]): 97000 M⁻¹ s⁻¹
B2: Y1238-N297A (antibody, human IgG1, kappa, N297A)
heavy: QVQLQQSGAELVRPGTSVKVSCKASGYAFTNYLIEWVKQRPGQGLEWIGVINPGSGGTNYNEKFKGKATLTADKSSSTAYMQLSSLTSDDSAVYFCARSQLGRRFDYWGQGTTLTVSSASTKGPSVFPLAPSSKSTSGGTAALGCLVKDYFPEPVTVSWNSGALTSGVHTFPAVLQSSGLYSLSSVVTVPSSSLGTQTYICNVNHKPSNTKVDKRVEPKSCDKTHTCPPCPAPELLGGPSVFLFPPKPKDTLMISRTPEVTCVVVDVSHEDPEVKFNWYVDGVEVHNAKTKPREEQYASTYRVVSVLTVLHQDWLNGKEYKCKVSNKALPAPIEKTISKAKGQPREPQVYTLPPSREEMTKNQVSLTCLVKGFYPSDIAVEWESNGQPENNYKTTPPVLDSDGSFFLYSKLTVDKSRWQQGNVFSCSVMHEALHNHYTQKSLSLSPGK
light: B1 light
notes: Chimeric; also called chimeric Y1238-N297A

binding result (hCD32b-His): binds
binding result (hCD32a-R131-His): binds
binding result (hCD32a-H131-His): binds
binding result (hCD16a-V158-His): binds
binding result (hCD64-His [4]): binds
Kd (human-CD40 monomer [5]): 6.7 nM
koff (human-CD40 monomer [5]): 0.00046 s⁻¹
kon (human-CD40 monomer [5]): 69000 M⁻¹ s⁻¹
B3: 5F11-45-IgG1f (antibody)
heavy: not shown
light: DIVLTQSPDSLAVSLGERATINCRASKNVDSYGNSFMHWYQQKPGQPPKLLIYRASNLESGVPDRFSGSGSGTDFTLTISSLQAEDVAVYYCQQSNEDPLTFGQGTKLEIKRTVAAPSVFIFPPSDEQLKSGTASVVCLLNNFYPREAKVQWKVDNALQSGNSQESVTEQDSKDSTYSLSSTLTLSKADYEKHKVYACEVTHQGLSSPVTKSFNRGEC
notes: Humanized anti-CD40, wild type human IgG1f

binding result (hCD32b-His): binds
binding result (hCD32a-R131-His): binds
binding result (hCD32a-H131-His): binds
Kd (human-CD40 monomer [5]): 6.6 nM
koff (human-CD40 monomer [5]): 0.00047 s⁻¹
kon (human-CD40 monomer [5]): 71000 M⁻¹ s⁻¹
B4: 5F11-45-SE (antibody, human IgG1, kappa)
heavy: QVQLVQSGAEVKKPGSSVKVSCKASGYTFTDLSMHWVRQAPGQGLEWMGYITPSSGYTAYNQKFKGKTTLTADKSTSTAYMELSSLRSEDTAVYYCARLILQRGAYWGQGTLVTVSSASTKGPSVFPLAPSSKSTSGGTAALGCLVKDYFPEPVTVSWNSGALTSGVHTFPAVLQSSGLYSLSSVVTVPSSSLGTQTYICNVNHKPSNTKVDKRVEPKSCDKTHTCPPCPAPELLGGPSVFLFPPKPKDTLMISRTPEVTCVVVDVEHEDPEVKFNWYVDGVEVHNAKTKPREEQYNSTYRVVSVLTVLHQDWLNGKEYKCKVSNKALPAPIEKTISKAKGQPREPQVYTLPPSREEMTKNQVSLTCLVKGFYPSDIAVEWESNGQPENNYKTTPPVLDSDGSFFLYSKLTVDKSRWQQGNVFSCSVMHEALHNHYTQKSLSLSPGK
light: B3 light
notes: also called S267E variant
